Legend:
EBV gp350 [1] = molecular target: T1, EBV gp350 (Epstein-Barr virus, UniProt P03200); test: ITC
T1 chain: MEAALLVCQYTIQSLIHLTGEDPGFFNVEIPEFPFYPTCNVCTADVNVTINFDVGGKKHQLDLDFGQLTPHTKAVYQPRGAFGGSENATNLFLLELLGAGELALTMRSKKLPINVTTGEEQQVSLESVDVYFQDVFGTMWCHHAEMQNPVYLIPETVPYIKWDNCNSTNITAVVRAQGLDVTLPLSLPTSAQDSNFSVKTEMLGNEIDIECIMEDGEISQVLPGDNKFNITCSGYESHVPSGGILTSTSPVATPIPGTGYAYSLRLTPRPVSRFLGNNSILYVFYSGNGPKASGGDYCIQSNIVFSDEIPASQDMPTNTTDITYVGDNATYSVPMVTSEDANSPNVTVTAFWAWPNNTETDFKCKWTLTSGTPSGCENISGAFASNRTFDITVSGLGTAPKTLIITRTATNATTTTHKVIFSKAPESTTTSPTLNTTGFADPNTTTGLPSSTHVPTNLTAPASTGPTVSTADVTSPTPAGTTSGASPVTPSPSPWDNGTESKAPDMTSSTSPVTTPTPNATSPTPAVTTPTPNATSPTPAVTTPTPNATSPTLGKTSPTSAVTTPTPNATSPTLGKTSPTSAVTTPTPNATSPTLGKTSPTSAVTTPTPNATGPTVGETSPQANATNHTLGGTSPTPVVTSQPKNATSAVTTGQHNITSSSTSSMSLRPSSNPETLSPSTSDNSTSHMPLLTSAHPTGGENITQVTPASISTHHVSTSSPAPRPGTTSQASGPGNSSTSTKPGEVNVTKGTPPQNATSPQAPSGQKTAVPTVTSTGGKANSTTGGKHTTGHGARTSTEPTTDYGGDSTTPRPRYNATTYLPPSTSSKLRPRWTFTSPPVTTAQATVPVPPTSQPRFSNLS

C3d [2] = molecular target: T2, C3d (human, UniProt P01024); test: ITC, two-site fit, weak site
T2 sequence (P01024 1002-1303): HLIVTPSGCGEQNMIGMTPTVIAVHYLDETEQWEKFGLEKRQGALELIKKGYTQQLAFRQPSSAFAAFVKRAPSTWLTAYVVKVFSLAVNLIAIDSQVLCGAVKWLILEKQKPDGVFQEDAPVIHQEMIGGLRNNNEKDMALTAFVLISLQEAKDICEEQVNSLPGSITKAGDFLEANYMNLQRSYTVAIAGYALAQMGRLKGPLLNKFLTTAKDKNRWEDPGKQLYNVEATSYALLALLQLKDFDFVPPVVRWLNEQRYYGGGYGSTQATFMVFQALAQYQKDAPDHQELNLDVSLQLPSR

C3d [3] = molecular target: T2, C3d; test: other (NMR titration, weak site)
C3d [4] = molecular target: T2, C3d; test: other (NMR titration, tight site, upper limit)
C3d [5] = molecular target: T2, C3d; test: ITC, two-site fit, tight site
EBV gp350 [6] = molecular target: T1, EBV gp350; test: other (NMR titration, upper limit)

B1: human CR2 SCR1-2 (protein)
chain: ISCGSPPPILNGRISYYSTPIAVGTVIRYSCSGTFRLIGEKSLLCITKDKVDGTWDKPAPKCEYFNKYSSCPEPIVPGGYKIRGSTPYRHGDSVTFACKTNFSMNGNKSVWCQANNMWGPTRLPTCVS
Kd (EBV gp350 [1]): 0.014 µM
Kd (C3d [2]): 160 µM
Kd (C3d [3]): 130 µM
Kd (C3d [4]): < 45 µM
Kd (C3d [5]): 0.13 µM
Kd (EBV gp350 [6]): < 60 µM

— patent publication US9650447 (dated 2017)
